In this assay the target is Escherichia coli DNA gyrase B subunit (GyrB) (Escherichia coli, UniProt P0AES6 1-804). Kind of assay: SAXS.

B1: GyrA-ΔCTD (mutant GyrA subunit lacking the CTDs, residues 1–523) (domain or fragment)
chain: MSDLAREITPVNIEEELKSSYLDYAMSVIVGRALPDVRDGLKPVHRRVLYAMNVLGNDWNKAYKKSARVVGDVIGKYHPHGDSAVYDTIVRMAQPFSLRYMLVDGQGNFGSIDGDSAAAMRYTEIRLAKIAHELMADLEKETVDFVDNYDGTEKIPDVMPTKIPNLLVNGSSGIAVGMATNIPPHNLTEVINGCLAYIDDEDISIEGLMEHIPGPDFPTAAIINGRRGIEEAYRTGRGKVYIRARAEVEVDAKTGRETIIVHEIPYQVNKARLIEKIAELVKEKRVEGISALRDESDKDGMRIVIEVKRDAVGEVVLNNLYSQTQLQVSFGINMVALHHGQPKIMNLKDIIAAFVRHRREVVTRRTIFELRKARDRAHILEALAVALANIDPIIELIRHAPTPAEAKTALVANPWQLGNVAAMLERAGDDAARPEWLEPEFGVRDGLYYLTEQQAQAILDLRLQKLTGLEHEKLLDEYKELLDQIAELLRILGSADRLMEVIREELELVREQFGDKRRTEITA
Regarding B1, the binding result is on record as “binds”.

The record behind these values is article PMC3025574 (Nucleic Acids Research, 2010).
